According to patent publication US9683238, “Vascular endothelial growth factor-binding aptamers” (National University Corporation Tokyo University of …):

Legend:
[1] = target: T1, VEGF165 (vascular endothelial growth factor 165) (Homo sapiens, UniProt P15692-4 P15692-4:27-191); assay: SPR; VEGF immobilized on CM5; TBS with 5 mM KCl, pH 7.4, 20 C; details: tags: R&D Systems, expressed in Sf21 insect cells, chain copies: 2 (inferred, homodimer)
Method: (§1) The capacity of each oligonucleotide to bind to VEGF was evaluated using Biacore T200 (GE Healthcare Japan, Japan) by measuring SPR on a CM5 sensor chip. VEGF was dissolved in 10 mM acetate buffer (pH 6.0), and VEGF (about 1000 RU) was covalently bound to the CM5 sensor chip using an amine coupling kit. A non-labeled oligonucleotide (1 µM) was dissolved in Tris-buffered saline (TBS: 10 mM Tris-HCl, 100 mM NaCl, 5 mM KCl; pH 7.4), and the resulting solution was heated at 95° C. for 5 minutes, followed by allowing the solution to cool slowly. Under these conditions, each oligonucleotide is folded to form its specific secondary structure. Various concentrations of the oligonucleotide diluted with TBS was injected at a flow rate of 20 µl/minute at 20° C. onto the CM5 chip on which VEGF was immobilized. Binding between the immobilized VEGF and the oligonucleotide was monitored. By injecting NaCl (1 M), the CM5 chip was regenerated. Using Biacore evaluation software, the association rate and the dissociation rate were approximated to calculate the K_d value.

[2] = target: T1, VEGF165 (vascular endothelial growth …); assay: SPR; no binding capacity; TBS, 20 C; details: tags: R&D Systems, expressed in Sf21 insect cells; chain copies: 2 (inferred, homodimer); G4 predicted
Method: as §1

[3] = target: T1, VEGF165 (vascular endothelial growth …); assay: SPR; VEGF immobilized on CM5; TBS (10 mM Tris-HCl, 100 mM NaCl, 5 mM KCl, pH 7.4), 20 C; details: tags: R&D Systems, expressed in Sf21 insect cells; chain copies: 2 (inferred, homodimer)

T1 sequence (P15692 other isoform, or with tags, fused parts or gaps): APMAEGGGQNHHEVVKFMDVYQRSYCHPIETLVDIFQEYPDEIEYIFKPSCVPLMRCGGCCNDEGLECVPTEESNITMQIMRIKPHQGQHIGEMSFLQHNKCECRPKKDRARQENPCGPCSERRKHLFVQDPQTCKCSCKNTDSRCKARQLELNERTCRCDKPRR

B1: 3R03 (3R#03) (ssDNA)
DNA: TGTGGGGGTGGACGGGCCGAGTACG
[1]; G4 predicted
  Kd: 1.7 nM

B2: 3R08 (3R#08) (ssDNA)
DNA: TGTGGGGATGGATGGGCCGGGCTGC
[1]; G4 predicted
  Kd: 1.5 nM

B3: 3R#06 (ssDNA)
DNA: TGTGGGGGGGGTGGGGGTGGACCGC
[2]
  binding result: no binding

B4: 2R#10 (ssDNA)
DNA: TGTGGGGTTGGACGGGCCGTGTAGA
[2]
  binding result: no binding

B5: 3R02 (3R#02) (ssDNA)
DNA: TGTGGGGGTGGACTGGGTGGGTACC
[1]
  Kd: 0.3 nM

B6: 3R02 bivalent (ssDNA)
DNA: TGTGGGGGTGGACTGGGTGGGTACCTTTTTTTTTTTGTGGGGGTGGACTGGGTGGGTACC
[3]
  Kd: 0.03 nM

B7: 3R#10 (ssDNA)
DNA: TGTGGGGCTGGGAGGTCGGGCCTGC
[2]
  binding result: no binding

B8: 2R#11 (ssDNA)
DNA: TGTGGGGGTGCGCGGGCCGGGCAGG
[2]
  binding result: no binding

B9: 3R#07 (ssDNA)
DNA: TGTGCGGGTGGCCGGGGTGGCCTGC
[2]
  binding result: no binding

B10: 2R#08 (ssDNA)
DNA: TGTGGGGTTGGACGGACCGGGTAGG
[2]
  binding result: no binding

B11: 3R#04 (ssDNA)
DNA: TGTGCGGGGGGTGGGGGTGGTTCCC
[2]
  binding result: no binding

B12: 3R09 (3R#09) (ssDNA)
DNA: TGTGGGGGTGGTTGGGCGGGGCTGC
[1]; G4 predicted
  Kd: 2.4 nM

B13: VEap121 (ssDNA)
DNA: TGTGGGGGTGGACGGGCCGGGTAGA
[1]; G4
  Kd: 4.7 nM

B14: 3R#01 (ssDNA)
DNA: TGTGGGGGAGGACGGGCGGGGATGC
[1]; G4 predicted
  Kd: 8.8 nM
